This note sets out measurements from PMC11804915, “Single-stranded DNA binding to the transcription factor PafBC triggers the mycobacterial DNA damage response”.

Changes are numbered by the printed parent chain.

Common to all, as to conditions: protein: recombinant; tags: C-terminal Strep on PafC; copies: 1;1; label: FAM; single strand
One series has as its target T1, PafBC, PafC WYL variant (Mycobacterium smegmatis, UniProt A4ZHT0;A0QZ41 1-331;1-318, R201A;R204A).
T1 sequence 1: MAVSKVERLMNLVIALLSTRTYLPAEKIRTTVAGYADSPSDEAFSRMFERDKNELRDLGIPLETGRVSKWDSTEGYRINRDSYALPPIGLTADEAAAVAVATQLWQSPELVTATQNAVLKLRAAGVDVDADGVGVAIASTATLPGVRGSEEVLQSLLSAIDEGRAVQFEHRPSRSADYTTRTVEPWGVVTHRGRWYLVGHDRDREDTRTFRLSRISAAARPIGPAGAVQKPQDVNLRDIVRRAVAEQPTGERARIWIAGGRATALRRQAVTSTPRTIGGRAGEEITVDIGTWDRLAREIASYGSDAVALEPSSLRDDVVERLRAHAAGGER
T1 sequence 2: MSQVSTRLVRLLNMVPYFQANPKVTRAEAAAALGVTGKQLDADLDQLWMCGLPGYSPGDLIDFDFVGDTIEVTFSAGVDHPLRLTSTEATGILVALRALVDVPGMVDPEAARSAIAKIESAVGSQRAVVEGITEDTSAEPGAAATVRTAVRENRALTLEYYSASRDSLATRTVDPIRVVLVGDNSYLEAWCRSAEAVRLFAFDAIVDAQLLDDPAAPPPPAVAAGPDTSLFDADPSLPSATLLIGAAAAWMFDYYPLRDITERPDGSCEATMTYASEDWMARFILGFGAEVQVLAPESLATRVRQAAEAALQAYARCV
The series is described as follows: EMSA; affinity comparable to WT; ssDNA EMSA: 22.5 mM Hepes-KOH pH 7.8, 135 mM NaCl, 20 mM KCl, 5 mM MgCl2, 1 mM DTT, 37 C 15 min, 10 nM DNA, 0-16 uM PafBC; RNAP EMSA: 20 mM Hepes-NaOH pH 8, 100 mM K-acetate, 36 mM NaCl, 10 mM MgCl2, 2 mM DTT, 37 C 30 min.

A further series deals with T2, PafBC WT (Mycobacterium smegmatis, UniProt A4ZHT0;A0QZ41 1-331;1-318).
T2 sequence 1: T1 sequence 1
T2 sequence 2: T1 sequence 2 with A201R, A204R
The series is described as follows: EMSA; low micromolar affinity; ssDNA EMSA: 22.5 mM Hepes-KOH pH 7.8, 135 mM NaCl, 20 mM KCl, 5 mM MgCl2, 1 mM DTT, 37 C 15 min, 10 nM DNA, 0-16 uM PafBC; RNAP EMSA: 20 mM Hepes-NaOH pH 8, 100 mM K-acetate, 36 mM NaCl, 10 mM MgCl2, 2 mM DTT, 37 C 30 min. For orientation: A gel shift assay detects complexes by their altered migration in electrophoresis.

The next series concerns the target T3, PafBC WYL RR (Mycobacterium smegmatis, UniProt A4ZHT0;A0QZ41 1-331;1-318, R211A;R214A;R201A;R204A).
T3 sequence 1: T1 sequence 1 with R211A, R214A
T3 sequence 2: T1 sequence 2
The series is described as follows: EMSA; up to 16 uM; ssDNA EMSA: 22.5 mM Hepes-KOH pH 7.8, 135 mM NaCl, 20 mM KCl, 5 mM MgCl2, 1 mM DTT, 37 C 15 min, 10 nM DNA, 0-16 uM PafBC; RNAP EMSA: 20 mM Hepes-NaOH pH 8, 100 mM K-acetate, 36 mM NaCl, 10 mM MgCl2, 2 mM DTT, 37 C 30 min.

Another series addresses T4, PafBC, PafB Y196A (Mycobacterium smegmatis, UniProt A4ZHT0;A0QZ41 1-331;1-318, Y196A).
T4 sequence 1: T1 sequence 1 with Y196A
T4 sequence 2: T1 sequence 2 with A201R, A204R
Described as above.

In the case of TTTTTTTTTTTTTTTTTTTT (ssDNA) [dT20 ssDNA], the binding result in the series with PafBC, PafC WYL variant is “binds”; with PafBC WT it was “binds”; with PafBC WYL RR, “no binding”; with PafBC, PafB Y196A, “no binding”.
